From the nanobody polyreactivity screen of Harvey et al. (2022)

Assay: yeast display, Sf9 membrane polyspecificity reagent, FACS + sequencing; frameworks hold sequencing errors
Summary of the method: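 Synthetic nanobody libraries on Saccharomyces cerevisiae BJ5465 were galactose-induced for 36–48 hours, stained 1 hour at 4 °C with 10% biotinylated, detergent-solubilized Sf9 membrane reagent and enriched on streptavidin microbeads. FACS then separated cells into low and high (top ~1%) gates by anti-HA (expression) and streptavidin (reagent binding) fluorescence. Genes were colony-PCR amplified, MiSeq 2 × 250 sequenced and CDR-length filtered. A clone's polyreactivity label is that of its gate of origin.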

Row | Sequence | polyreactivity (PSR sort gate)
1 | QVQLVESGGGLFQAGGSLRLSCAASGGTFPYNAMGWYRPAPGKERELVATISFTDGSTYYADSVKGRFTLSRYIAKNTVYLQMNSLKPEDTAVYYCAKDYYRPGMDYWGQGTQVTVSS | low polyreactivity
2 | QVQLVESGGGLFQAGGSLRLSCAASGIIFYHYAMGWYRQAPGKERELVAAITRSGSRTYYADSVKGRFTISRDNAKNTVYLQLNSLKPEDTAVYYCAYRRRWYGIRNYYWGQGTQVTVSS | high polyreactivity
3 | QVQLVESGGGLFQAGGSLRLSCAASGISFWSYDMGWYRQAPGKERELVAAISRGGESTYYADSVKGRFTISRDLAKNTVYVQMNSLKPEDTAVYYCPALRPREEYYWGQGTQVTVSS | high polyreactivity
4 | QVQLVESGGGLFQAGGSLRLSCAASGITFERYTMGWYRQAPGKERELVAAIRGSGGTYYADSVKGRFTISRENAKNTVYLQMNSLKPEDTAVYYCNAVLWVYYHWPYDYWGQGTQVTVSS | high polyreactivity
5 | QVQLVESGGGLFQAGGSLRLSCAASGLIFRPYAMAWSRQAPGTERELVAAIRGSGGRTYYADSVKGRFTISRDNEKNTVYLQMNSLKPEDTAVYYCAVDVGRHTGYYYWGQGTQVTVSS | high polyreactivity
6 | QVQLVESGGGLFQAGGSLRLSCAASGRIFGAYTKRSYRQAPGKERELVAAITGRGGGTYYADSVKGRFTISRDNAKNTVYLQMNSLKPEDTAVYYCNVKLYYYYFRMYYWGQGTQVTVSS | low polyreactivity
7 | QVQLVESGGGLFQAGGSLRLSCAASGRIFGDNGMGWYRQAPGKERELVTYADSVKGRFTISRDNAKNTVYLQMNSLKPEDTAVYYCNKDPPRLSGLDENYWGQGTQVTVSS | low polyreactivity
8 | QVQLVESGGGLFQAGGSLRLSCAASGRIFGIYAMGWYRQAPGKERELVAAITRGSTYYADSVKGRFTISRDNAKNTVYLQMNSLKPEDTAVYYCNARPRVPGVLYLYDYLGQGTQVTVSS | high polyreactivity
9 | QVQLVESGGGLFQAGGSLRLSCAASGRIFQYHAMGWYRQAPGKERELVAAIRRGRGSTYYADSVKGRFTISRDYAKNTVYLQMNSLKPVDTAVYYCAARRKRVSFYPEYDFWGQGTQVTVSS | low polyreactivity
10 | QVQLVESGGGLFQAGGSLRLSCAASGRIFWNYAMGWYRQAPGKERELVASINWSGGSTYYADSVKGRFTISRDNAKNTVYLQMNSLKPEDTAVYYCNKDGRVYLDHDYWGQGTQVTVSS | low polyreactivity
11 | QVQLVESGGGLFQAGGSLRLSCAASGRIYRFYAMGWYRQAPGKERELVAAISASGGSTYYADSVKGRFTSSRDNAKNTVYLQMISLKPEVTAVYYCAAYSWGGGYYWGQGTQVTVSS | high polyreactivity
12 | QVQLVESGGGLFQAGGSLRLSCAASGRTFNFNVMGWYRQAPGKERELVAAMSKSTGSTFYADSVKGRFTISRDNAKNTVYLQMNSLKPEDTAGYYCAAKPSRSLYYYWGQGTQVTVSS | high polyreactivity
13 | QVQLVESGGGLFQAGGSLRLSCAASGRTFRTNAMGWYRQAPGKERELVAAITRSGGSTYADSVKGRFTISRDNAKNTVYLQMNSLKPEDTAVYYCATTRDWVYNYWGQGTQVTVSS | low polyreactivity
14 | QVQLVESGGGLFQAGGSLRLSCAASGRTFWRYAMAWYRQAPGKERELVARISWRGGSTNYADSVKGRFTISRDNAKNTVYLQMNSLKPAETAVYYFNAEVLNYLVFGYQLGYDYWGQGTQGTVSS | low polyreactivity
15 | QVQLVESGGGLFQAGGSLRLSCAASGRTFYNNAMGWYRQAPGKERELVATINNRGGTTYYADSVKGRFTISRDNAKNTVYLQMNSLKPEDTAVYYCAKSAQRYSYRYYYWGQGTQVTVSS | high polyreactivity
16 | QVQLVESGGGLFQAGGSLRLSCAASGRTFYYYAMGWYRQAPGKERELVASISRTGGPTSYADSVKGRFTISRDTAKNPVYLQMNSLKPEDTAVYYCATRRRVYSGYDYWGQGTQVTVSS | high polyreactivity

Row | Sequence | polyreactivity (PSR sort gate)
17 | QVQLVESGGGLFQAGGSLRLSCAASGSIFEFNAMGWYRQAPGKERELVAGITNSGSSTYYADSVKGRLTISRDHAKNTVYLQMNSLKPEDTAVFYCNARLSRWRRRPYDYWGQGTQVTVSS | high polyreactivity
18 | QVQLVESGGGLFQAGGSLRLSCAASGSNFDYNAMGWYRPAHGKERELVAAITSTDSTYADSVKGRFTISRDTAKNTVYLQMNRLKPEDTAVYYCAAEDVIYYLTGQWREYDYWGQGTQVTVSS | low polyreactivity
19 | QVQLVESGGGLFQAGGSLRLSCAASGSPFSSYAIGWYRQAPGKERELVAAISYRGTRTRYADSVKGRFTISRDNAKNTVYLQMNSLKPEDTAVYDCAADRTFYGIRFDYWGQGTQVTVSS | low polyreactivity
20 | QVQLVESGGGLFQAGGSLRLSCAASGSTFDTNVMGWYRQAPGKERELVAAIDVSGGSTYYADSVKGRFTISRDNAKNTVYLQMNSLKPEDTAVYYCAAEGTTWYYDMDYWGQGTQVTVSS | low polyreactivity
21 | QVQLVESGGGLFQAGGSLRLSCAASGSTFGFNAMGWYRQAPGKEREFVAAINTSGGNTYYADSVKGRFTISRDNAKNTVYLQMNSLKPEDTAVYYCNAREGHLYGYPYGYWGQGTQVTVSS | low polyreactivity
22 | QVQLVESGGGLFQAGGSLRLSCAASGSTFGSYAMGWYRQAPAKERELVADISSRGASTYYADSVKGRFTISRDNEKNTVYLEMISLKPEDTAVYYCNTTGEYYDYWGHGTQVTVSS | low polyreactivity
23 | QVQLVESGGGLFQAGGSLRLSCAASGSTFLIYAMGWYRQAPGKERELVATIRSGGASTNYADSVKGRFTISRDNAKNTVYLQMNSLKPEDTAVYYCPARCWTWTYQSSYVYWGQGTQVTVSS | low polyreactivity
24 | QVQLVESGGGLFQAGGSLRLSCAASGSTFYAYAIGWYRQAPGKERELVAAITLSGGSTYYADSVKGRFTISRDNAKNTVYLQMNSLKPEDTAVYYCAADQLRCGDYYWGQGTQVTVSS | high polyreactivity
25 | QVQLVESGGGLFQAGGSLRLSCAASGYIFGSYVMGWYIQAPGKERELVAAISRRGGSTYYADSVKGRFTISRDNAKNTVYLQMNSLNPEDTAVYYCAADDGQYAKYDYWGQGTQVTVSS | high polyreactivity
26 | QVQLVESGGGLFQAGGSLRLSCAASGYIFVRYAMGWYRQAPGKEREFVAAISSSGGSTRYADSVKGRFTISRDKAKYNVYLQMNSLKPEDTAVYYCAATRVARDGSPMYYWGQGTQVTVSS | high polyreactivity
27 | QVQLVESGGGLFQAGGSLRLSCAPSGFTFSNYAMGWYRQAPGKEREFVAAISGTGGSTYYADSVKGRFTISRDNAKNTVYLQMNSLKPEDTEVYYCYFYFRRQYEHEYWGQGTQVTVSS | high polyreactivity
28 | QVQLVESGGGLFQAGGSLRLTCAASGRIFTHYSMGWYRQPPGKEREFVAAISRSGARTYYADSVKGRFTISRDYAKNTVYLQMYSLKREVTSVYYCAKDQVDSPRDRYQKLDFWGQGTQVTVSS | low polyreactivity
29 | QVQLVESGGGLFQAGGSLRVSCAASGFTFVYYAMGWYRQAPGKERELVAAITASGGSTYYADSVQGRFTISRDNAKNTVYLQMNSLKPEDSADYYCNTVRYVRHYRQSGYWGQGTQVTVSS | high polyreactivity
30 | QVQLVESGGGLFQAGGSLRVSCAASGITFRDNGMVWYRQAPGKERELVAAITSGGSTYYADSVKGSCTISRDHAKNTVYFQMNSLKPEDTAVYLCAAKRIKRRGWRQLSWYDSWGQGTQVTVSS | high polyreactivity
31 | QVQLVESGGGLFQAGGSLRVSSAPSGITFYGYAMGWYRQAPGKERELVAAINRGGTGTYYADSVKGRFTISRYNAKNTVYLQMNSLTPEDTAVYYCNKAGYPLADPTAGKRQFDDWGQGTEVTVSS | low polyreactivity
32 | QVQLVESGGGLFQAGGSLSLSCAASGRNLSGYDMGWYRQAQGKERELVAAITRGGTTYYADSVKGRFTISRDNSKNTVYLQMNSLKADDTAVVYTVSYAQYDYWGQGTQVTVSS | low polyreactivity
